One test deals with Murine CD73 ECD (murine) (UniProt Q61503). Put plainly: binding assay, format not stated.
Test [1] addresses Cynomolgus CD73 ECD (cynomolgus). Put plainly: binding assay, format not stated.

Sequence of Murine CD73 ECD (murine) (Q61503 29-551 limits assumed): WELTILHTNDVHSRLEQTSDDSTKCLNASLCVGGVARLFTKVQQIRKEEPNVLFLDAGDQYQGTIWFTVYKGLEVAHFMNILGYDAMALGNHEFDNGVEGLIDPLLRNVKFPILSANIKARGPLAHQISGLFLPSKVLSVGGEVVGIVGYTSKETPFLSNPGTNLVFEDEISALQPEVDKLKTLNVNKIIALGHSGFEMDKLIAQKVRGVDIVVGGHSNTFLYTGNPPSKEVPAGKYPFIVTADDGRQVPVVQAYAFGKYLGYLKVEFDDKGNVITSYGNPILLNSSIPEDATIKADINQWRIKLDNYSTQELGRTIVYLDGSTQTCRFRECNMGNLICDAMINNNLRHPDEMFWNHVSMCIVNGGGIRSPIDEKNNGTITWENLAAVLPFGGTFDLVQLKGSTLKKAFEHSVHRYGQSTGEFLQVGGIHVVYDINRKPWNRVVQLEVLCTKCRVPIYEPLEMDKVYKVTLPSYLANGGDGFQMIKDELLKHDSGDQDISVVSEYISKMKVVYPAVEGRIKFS
Sequence of Cynomolgus CD73 ECD (cynomolgus) (chain, as listed by the source): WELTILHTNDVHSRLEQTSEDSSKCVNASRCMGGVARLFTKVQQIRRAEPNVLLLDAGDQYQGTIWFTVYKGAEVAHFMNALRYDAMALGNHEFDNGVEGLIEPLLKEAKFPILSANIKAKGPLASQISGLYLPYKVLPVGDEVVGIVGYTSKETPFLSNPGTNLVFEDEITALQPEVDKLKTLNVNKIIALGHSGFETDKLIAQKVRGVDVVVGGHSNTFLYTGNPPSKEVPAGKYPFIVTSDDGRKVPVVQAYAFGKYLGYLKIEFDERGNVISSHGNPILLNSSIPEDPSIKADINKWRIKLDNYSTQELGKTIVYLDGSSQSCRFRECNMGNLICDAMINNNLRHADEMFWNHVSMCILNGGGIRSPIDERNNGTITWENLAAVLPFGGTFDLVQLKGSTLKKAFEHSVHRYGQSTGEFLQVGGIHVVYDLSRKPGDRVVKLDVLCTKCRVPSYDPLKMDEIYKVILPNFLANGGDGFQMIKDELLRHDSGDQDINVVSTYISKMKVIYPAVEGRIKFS

B1: CD730047 (antibody, V domains shown)
VH: EVQLVQSGGGVVQPGRSLRLSCAASGFTFSSYGMHWVRQAPGKGLEWVAVISYDGSIKYYADSVKGRFAISRDNAKNTLYLQMNSLRREDTAMYYCASGLTGVAGALGVWGRGTLVTVSS
VL: QSVLTQPPSASGAPGQRVTISCSGSSSNIGSNTVNWYQRLPGAAPQLLIYNNDQRPSGIPDRFSGSKSGTSGSLVISGLQSEDEADYYCAAWDDSLSGNVFGTGTKVTVL
Consider B1, for which the 1/EC50 (in the test with Murine CD73 ECD (murine); in test [1]) was 0 nM⁻¹ each time.

B2: CD730042 (antibody, V domains shown)
VH: GVQLVQSGGGLVQPGGSLRLSCAASGFTFSSYGMHWVRQAPGKGLEWVAVISYDGSIKYYADSVKGRFTISRDDSKNALYLQMNSLRAEDTAVYYCSTLSGSYGYFDYWGRGTLVTVSS
VL: QSVLTQPASVSGSPGQSITISCAGTSSDVGGYNYVSWYQQHPGKAPKLMIYEGSKRPSGVSNRFSGSKSGNTASLTISGLQAEDEADYYCSSYTTRSTRVFGGGTKLTVL
As to B2, in the test with Murine CD73 ECD (murine), the 1/EC50 is 0 nM⁻¹.

The values are drawn from patent US20230340152A1.
